Laboratory results published in patent publication US20030216563A1 (Scripps Research, published 2003).

T1: Cdc25 (Schizosaccharomyces pombe, UniProt P06652 1-596)
T1 construct: Endogenous protein co-purified from S. pombe cells and detected with antibodies to Cdc25
T1 sequence (looked up): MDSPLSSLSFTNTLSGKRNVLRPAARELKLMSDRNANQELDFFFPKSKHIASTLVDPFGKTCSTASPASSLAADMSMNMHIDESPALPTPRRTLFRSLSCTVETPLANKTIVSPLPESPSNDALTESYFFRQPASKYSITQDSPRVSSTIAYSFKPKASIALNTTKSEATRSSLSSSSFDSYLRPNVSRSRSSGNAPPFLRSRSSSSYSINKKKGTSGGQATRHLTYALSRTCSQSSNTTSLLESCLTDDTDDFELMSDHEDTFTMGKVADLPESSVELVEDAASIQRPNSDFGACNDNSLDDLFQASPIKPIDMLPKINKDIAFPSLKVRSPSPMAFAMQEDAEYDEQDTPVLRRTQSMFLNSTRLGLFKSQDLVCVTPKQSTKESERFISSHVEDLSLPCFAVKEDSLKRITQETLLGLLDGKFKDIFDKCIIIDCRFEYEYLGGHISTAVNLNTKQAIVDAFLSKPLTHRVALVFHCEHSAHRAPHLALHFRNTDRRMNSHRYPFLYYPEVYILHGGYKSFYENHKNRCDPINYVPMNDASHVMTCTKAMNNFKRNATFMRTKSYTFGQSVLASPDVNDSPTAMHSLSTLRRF

T2: Weel (Schizosaccharomyces pombe, UniProt P07527 1-877)
T2 construct: Endogenous protein co-purified from S. pombe cells and detected with antibodies to Weel; also called kinase Weel; native Weel protein
T2 sequence (looked up): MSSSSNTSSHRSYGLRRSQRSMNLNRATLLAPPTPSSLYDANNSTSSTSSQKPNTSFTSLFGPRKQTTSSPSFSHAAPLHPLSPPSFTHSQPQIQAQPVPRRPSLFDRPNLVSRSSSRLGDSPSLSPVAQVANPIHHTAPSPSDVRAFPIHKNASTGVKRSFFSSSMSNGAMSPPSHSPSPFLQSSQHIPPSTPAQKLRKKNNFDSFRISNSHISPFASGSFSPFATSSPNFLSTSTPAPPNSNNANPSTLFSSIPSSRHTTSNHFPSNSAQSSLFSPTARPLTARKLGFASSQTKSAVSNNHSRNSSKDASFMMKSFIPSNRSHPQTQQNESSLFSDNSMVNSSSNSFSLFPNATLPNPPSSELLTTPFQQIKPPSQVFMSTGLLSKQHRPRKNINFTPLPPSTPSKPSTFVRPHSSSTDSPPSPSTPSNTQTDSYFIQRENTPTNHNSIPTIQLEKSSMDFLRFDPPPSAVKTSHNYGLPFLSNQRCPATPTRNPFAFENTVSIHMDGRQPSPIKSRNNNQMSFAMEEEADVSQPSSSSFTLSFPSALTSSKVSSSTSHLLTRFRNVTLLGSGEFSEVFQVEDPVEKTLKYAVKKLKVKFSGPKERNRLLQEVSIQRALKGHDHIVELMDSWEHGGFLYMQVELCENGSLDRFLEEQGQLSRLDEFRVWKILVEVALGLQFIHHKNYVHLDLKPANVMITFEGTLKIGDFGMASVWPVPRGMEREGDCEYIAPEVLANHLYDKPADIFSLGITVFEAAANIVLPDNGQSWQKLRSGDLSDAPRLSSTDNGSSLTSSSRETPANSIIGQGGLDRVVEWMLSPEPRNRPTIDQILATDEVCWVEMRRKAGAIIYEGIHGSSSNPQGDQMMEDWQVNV


Key:
Cdc25 [1] = molecular target: T1, Cdc25; test: GSH-Sepharose purification of GST fusion expressed in S. pombe, immunoblot
Protocol: (§1) FIG. 2D is a photograph of an analysis of proteins which illustrates that Weel interacts with GST:cds1⁺ but not GST:Chk1 in vivo. Strains carrying integrated nmt1:GST:chk1⁺ or nmt1:GST:cds1⁺ constructs were grown in minimal medium (EMM2) without thiamine at 30° C. for 16 hr to induce expression of GST fusion proteins. Cells were lysed and GST fusion proteins purified with GSH-Sepharose. After extensive washing, samples were resolved by 10% SDS-polyacrylamide gel electrophoresis and subjected to immunoblotting with antibodies to Weel, Cdc25 and GST. A ˜110 kDa protein corresponding to Weel was detected in the GST:Cds1 sample, whereas a ˜80 kDa protein corresponding to Cdc25 was detected in the GST:Chk1 sample. The ˜110 kDa protein was not detected in samples prepared from Δweel cells. GST:Cds1 and GST:Chk1 migrate at positions corresponding to ˜82 and ˜80 kDa, respectively.
(§2) As a control, a strain that expressed GST:Chk1 was used. The GST fusion proteins were purified with GSH-Sepharose and analyzed by immunoblotting. Cdc25 (but not Weel) associated with GST:Chk1, whereas Weel (but not Cdc25) associated with GST:Cds1 (FIG. 2D).

Weel [2] = molecular target: T2, Weel; test: GSH-Sepharose purification of GST fusion expressed in S. pombe, immunoblot with antibodies to Weel
Protocol: as §1, §2

Weel [3] = molecular target: T2, Weel; test: GSH-Sepharose purification of GST fusion expressed in S. pombe, immunoblot
Protocol: as §1, §2

Cdc25 [4] = molecular target: T1, Cdc25; test: GSH-Sepharose purification of GST fusion expressed in S. pombe, immunoblot with antibodies to Cdc25
Protocol: as §1, §2

Binder	binding result (Cdc25 [1])	binding result (Weel [2])	binding result (Weel [3])	binding result (Cdc25 [4])
GST:Chk1 (other, Schizosaccharomyces pombe, UniProt P34208 1-496, looked up, Expressed in S. pombe from the integrated nmt1:GST:chk1+ construct; Migrates at ~80 kDa; not shown: glutathione-S-transferase) MAQKLDNFPYHIGREIGTGAFASVRLCYDDNAKIYAVKFVNKKHATSCMNAGVWARRMASEIQLHKLCNGHKNIIHFYNTAENPQWRWVVLEFAQGGDLFDKIEPDVGIDEDVAQFYFAQLMEGISFMHSKGVAHRDLKPENILLDYNGNLKISDFGFASLFSYKGKSRLLNSPVGSPPYAAPEITQQYDGSKVDVWSCGIILFALLLGNTPWDEAISNTGDYLLYKKQCERPSYHPWNLLSPGAYSIITGMLRSDPFKRYSVKHVVQHPWLTSSTPFRTKNGNCADPVALASRLMLKLRIDLDKPRLASSRASQNDSGFSMTQPAFKKNDQKELDRVEVYGALSQPVQLNKNIDVTEILEKDPSLSQFCENEGFIKRLAKKAKNFYEICPPERLTRFYSRASRETIIDHLYDSLRLLAISVTMKYVRNQTILYVNLHDKRKCLLQGVIELTNLGHNLELINFIKRNGDPLEWRKFFKNVVSSIGKPIVLTDVSQN	binds	no binding	–	–
GST:Cds1 (other, Schizosaccharomyces pombe, UniProt Q09170 1-460, looked up, Expressed in S. pombe from the integrated nmt1:GST:cds1+ construct; Migrates at ~82 kDa; not shown: glutathione-S-transferase) MEEPEEATQATQEAPLHVSQNIAKQVVNNENVFMKLVMTRMLDGKTEVIPLTTDVHNGFWRFGRHKSCEVVLNGPRVSNFHFEIYQGHRNDSDESENVVFLHDHSSNGTFLNFERLAKNSRTILSNGDEIRIGLGVPKDEISFLCQVPVKHSRDSQKNMIKSENSHYEIIRTLGSGTFAVVKLAVEVNSGKWYAIKIINKRKILLTSSEKRATEMFQREIDILKSLHHPGVVQCHEIFENDDELFIVMEYVEGGDLMDFLIANGSIDEQDCKPLLKQLLETLLHLHKQGVTHRDIKPENILITNDFHLKISDFGLAKVIHGTGTFLETFCGTMGYLAPEVLKSKNVNLDGGYDDKVDIWSLGCVLYVMLTASIPFASSSQAKCIELISKGAYPIEPLLENEISEEGIDLINRMLEINPEKRISESEALQHPWFYTVSTHEHRTPPSSSEHEATEQLNSSS	–	–	binds	no binding
